Test results reported in patent publication US20210284734A1 (SYMPHOGEN A S, published 2021).

B1: 12819.17149 Fab (Fab, V domains shown)
VH: EVQLLESGGGLVQPGGSLRLSCAASGFTFTRYDMVWVRQAPGKGLEWVAGIGDSNKMTRYAPAVKGRATISRDNSKNTLYLQMNSLRAEDTAVYYCAKGSCIACWDEAGRIDAWGQGTLVTVSS
VL: SYELTQDPAVSVALGQTVRITCSGGGSYDGSSYYGWYQQKPGQAPVTVIYNNNNRPSDIPDRFSGSSSGNTASLTITGAQAEDEADYYCGSYDRPETNSDYVGMFGSGTKVTVL
notes: monomeric Fab fragment
B2: 12865.17150 Fab (Fab, V domains shown)
VH: EVQLLESGGGLVQPGGSLRLSCAASGFDFSDHGMQWVRQAPGKGLEYVGVIDTTGRYTYYAPAVKGRATISRDNSKNTLYLQMNSLRAEDTAVYYCAKTTCVGGYLCNTVGSIDAWGQGTLVTVSS
VL: SYELTQDPAVSVALGQTVRITCSGGGSSSYYGWYQQKPGQAPVTVIYDDTNRPSGIPDRFSGSSSGNTASLTITGAQAEDEADYYCGGYEGSSHAGIFGSGTKVTVL
notes: monomeric Fab fragment
B3: 13112.15380 Fab (Fab, V domains shown)
VH: EVQLLESGGGLVQPGGSLRLSCAASGFTFSSYNMFWVRQAPGKGLEFVAEISGSNTGSRTWYAPAVKGRATISRDNSKNTLYLQMNSLRAEDTAVYYCAKSIYGGYCAGGYSCGVGLIDAWGQGTLVTVSS
VL: SYELTQDPAVSVALGQTVRITCSGGSSDYYGWFQQKPGQAPVTVIYYNNKRPSDIPDRFSGSSSGNTASLTITGAQAEDEADYYCGNADSSVGVFGSGTKVTVL

Tests used:
Assay in all cases: SPR, Fab on captured PD-1-Fc;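 also: Alanine-scan PD-1 Fc fusions expressed transiently in ExpiCHO, captured on anti-human IgG Fc surface in IBIS MX96, anti-PD-1 Fab association 15 min, dissociation 30 min, Langmuir 1:1 fit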
human PD-1 ECD-Fc P152A = target: T1, human PD-1 ECD-Fc P152A (human, UniProt Q15116 21-170)
T1 construct: not shown: human IgG1 Fc, residues P101-K330

human PD-1 ECD-Fc G164A = target: T2, human PD-1 ECD-Fc G164A (human, UniProt Q15116 21-170)
T2 construct: not shown: human IgG1 Fc, residues P101-K330

human PD-1 ECD-Fc A163G = target: T3, human PD-1 ECD-Fc A163G (human, UniProt Q15116 21-170)
T3 construct: not shown: human IgG1 Fc, residues P101-K330

human PD-1 ECD-Fc T36A = target: T4, human PD-1 ECD-Fc T36A (human, UniProt Q15116 21-170)
T4 construct: not shown: human IgG1 Fc, residues P101-K330

human PD-1 ECD-Fc K135A = target: T5, human PD-1 ECD-Fc K135A (human, UniProt Q15116 21-170)
T5 construct: not shown: human IgG1 Fc, residues P101-K330

human PD-1 ECD-Fc A149G = target: T6, human PD-1 ECD-Fc A149G (human, UniProt Q15116 21-170)
T6 construct: not shown: human IgG1 Fc, residues P101-K330

human PD-1 ECD-Fc D48A = target: T7, human PD-1 ECD-Fc D48A (human, UniProt Q15116 21-170)
T7 construct: not shown: human IgG1 Fc, residues P101-K330

human PD-1 ECD-Fc L42A = target: T8, human PD-1 ECD-Fc L42A (human, UniProt Q15116 21-170)
T8 construct: not shown: human IgG1 Fc, residues P101-K330

human PD-1 ECD-Fc S157A = target: T9, human PD-1 ECD-Fc S157A (human, UniProt Q15116 21-170)
T9 construct: not shown: human IgG1 Fc, residues P101-K330

human PD-1 ECD-Fc E61A = target: T10, human PD-1 ECD-Fc E61A (human, UniProt Q15116 21-170)
T10 construct: not shown: human IgG1 Fc, residues P101-K330

human PD-1 ECD-Fc Q91A = target: T11, human PD-1 ECD-Fc Q91A (human, UniProt Q15116 21-170)
T11 construct: not shown: human IgG1 Fc, residues P101-K330

human PD-1 ECD-Fc P72A = target: T12, human PD-1 ECD-Fc P72A (human, UniProt Q15116 21-170)
T12 construct: not shown: human IgG1 Fc, residues P101-K330

human PD-1 ECD-Fc E136A = target: T13, human PD-1 ECD-Fc E136A (human, UniProt Q15116 21-170)
T13 construct: not shown: human IgG1 Fc, residues P101-K330

human PD-1 ECD-Fc E150A = target: T14, human PD-1 ECD-Fc E150A (human, UniProt Q15116 21-170)
T14 construct: not shown: human IgG1 Fc, residues P101-K330

human PD-1 ECD-Fc S57A = target: T15, human PD-1 ECD-Fc S57A (human, UniProt Q15116 21-170)
T15 construct: not shown: human IgG1 Fc, residues P101-K330

human PD-1 ECD-Fc N49A = target: T16, human PD-1 ECD-Fc N49A (human, UniProt Q15116 21-170)
T16 construct: not shown: human IgG1 Fc, residues P101-K330

human PD-1 ECD-Fc N116A = target: T17, human PD-1 ECD-Fc N116A (human, UniProt Q15116 21-170)
T17 construct: not shown: human IgG1 Fc, residues P101-K330

human PD-1 ECD-Fc P21A = target: T18, human PD-1 ECD-Fc P21A (human, UniProt Q15116 22-170)
T18 construct: not shown: human IgG1 Fc, residues P101-K330

human PD-1 ECD-Fc T59A = target: T19, human PD-1 ECD-Fc T59A (human, UniProt Q15116 21-170)
T19 construct: not shown: human IgG1 Fc, residues P101-K330

human PD-1 ECD-Fc A80G = target: T20, human PD-1 ECD-Fc A80G (human, UniProt Q15116 21-170)
T20 construct: not shown: human IgG1 Fc, residues P101-K330

human PD-1 ECD-Fc D92A = target: T21, human PD-1 ECD-Fc D92A (human, UniProt Q15116 21-170)
T21 construct: not shown: human IgG1 Fc, residues P101-K330

human PD-1 ECD-Fc P130A = target: T22, human PD-1 ECD-Fc P130A (human, UniProt Q15116 21-170)
T22 construct: not shown: human IgG1 Fc, residues P101-K330

human PD-1 ECD-Fc P158A = target: T23, human PD-1 ECD-Fc P158A (human, UniProt Q15116 21-170)
T23 construct: not shown: human IgG1 Fc, residues P101-K330

human PD-1 ECD-Fc G124A = target: T24, human PD-1 ECD-Fc G124A (human, UniProt Q15116 21-170)
T24 construct: not shown: human IgG1 Fc, residues P101-K330

human PD-1 ECD-Fc D77A = target: T25, human PD-1 ECD-Fc D77A (human, UniProt Q15116 21-170)
T25 construct: not shown: human IgG1 Fc, residues P101-K330

human PD-1 ECD-Fc S73A = target: T26, human PD-1 ECD-Fc S73A (human, UniProt Q15116 21-170)
T26 construct: not shown: human IgG1 Fc, residues P101-K330

human PD-1 ECD-Fc S71A = target: T27, human PD-1 ECD-Fc S71A (human, UniProt Q15116 21-170)
T27 construct: not shown: human IgG1 Fc, residues P101-K330

human PD-1 ECD-Fc E146A = target: T28, human PD-1 ECD-Fc E146A (human, UniProt Q15116 21-170)
T28 construct: not shown: human IgG1 Fc, residues P101-K330

human PD-1 ECD-Fc A154G = target: T29, human PD-1 ECD-Fc A154G (human, UniProt Q15116 21-170)
T29 construct: not shown: human IgG1 Fc, residues P101-K330

human PD-1 ECD-Fc T76A = target: T30, human PD-1 ECD-Fc T76A (human, UniProt Q15116 21-170)
T30 construct: not shown: human IgG1 Fc, residues P101-K330

human PD-1 ECD-Fc Q88A = target: T31, human PD-1 ECD-Fc Q88A (human, UniProt Q15116 21-170)
T31 construct: not shown: human IgG1 Fc, residues P101-K330

human PD-1 ECD-Fc N102A = target: T32, human PD-1 ECD-Fc N102A (human, UniProt Q15116 21-170)
T32 construct: not shown: human IgG1 Fc, residues P101-K330

human PD-1 ECD-Fc K131A = target: T33, human PD-1 ECD-Fc K131A (human, UniProt Q15116 21-170)
T33 construct: not shown: human IgG1 Fc, residues P101-K330
T33 sequence (Q15116 21-170 K131A): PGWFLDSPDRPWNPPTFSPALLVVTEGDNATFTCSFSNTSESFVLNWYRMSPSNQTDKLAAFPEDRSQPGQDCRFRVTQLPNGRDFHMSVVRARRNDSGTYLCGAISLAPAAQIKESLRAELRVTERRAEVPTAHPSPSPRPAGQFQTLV

T22 sequence (Q15116 21-170 P130A): as the sequence (Q15116 21-170 K131A) above, with P110A, A111K counted along it
T5 sequence (Q15116 21-170 K135A): as the sequence (Q15116 21-170 K131A) above, with A111K, K115A counted along it
T32 sequence (Q15116 21-170 N102A): as the sequence (Q15116 21-170 K131A) above, with N82A, A111K counted along it
T9 sequence (Q15116 21-170 S157A): as the sequence (Q15116 21-170 K131A) above, with A111K, S137A counted along it
T29 sequence (Q15116 21-170 A154G): as the sequence (Q15116 21-170 K131A) above, with A111K, A134G counted along it
T27 sequence (Q15116 21-170 S71A): as the sequence (Q15116 21-170 K131A) above, with S51A, A111K counted along it
T30 sequence (Q15116 21-170 T76A): as the sequence (Q15116 21-170 K131A) above, with T56A, A111K counted along it
T7 sequence (Q15116 21-170 D48A): as the sequence (Q15116 21-170 K131A) above, with D28A, A111K counted along it
T17 sequence (Q15116 21-170 N116A): as the sequence (Q15116 21-170 K131A) above, with N96A, A111K counted along it
T15 sequence (Q15116 21-170 S57A): as the sequence (Q15116 21-170 K131A) above, with S37A, A111K counted along it
T21 sequence (Q15116 21-170 D92A): as the sequence (Q15116 21-170 K131A) above, with D72A, A111K counted along it
T10 sequence (Q15116 21-170 E61A): as the sequence (Q15116 21-170 K131A) above, with E41A, A111K counted along it
T25 sequence (Q15116 21-170 D77A): as the sequence (Q15116 21-170 K131A) above, with D57A, A111K counted along it
T18 sequence (Q15116 21-170 P21A): as the sequence (Q15116 21-170 K131A) above, with P1A, A111K counted along it
T20 sequence (Q15116 21-170 A80G): as the sequence (Q15116 21-170 K131A) above, with A60G, A111K counted along it
T3 sequence (Q15116 21-170 A163G): as the sequence (Q15116 21-170 K131A) above, with A111K, A143G counted along it
T19 sequence (Q15116 21-170 T59A): as the sequence (Q15116 21-170 K131A) above, with T39A, A111K counted along it
T23 sequence (Q15116 21-170 P158A): as the sequence (Q15116 21-170 K131A) above, with A111K, P138A counted along it
T24 sequence (Q15116 21-170 G124A): as the sequence (Q15116 21-170 K131A) above, with G104A, A111K counted along it
T31 sequence (Q15116 21-170 Q88A): as the sequence (Q15116 21-170 K131A) above, with Q68A, A111K counted along it
T8 sequence (Q15116 21-170 L42A): as the sequence (Q15116 21-170 K131A) above, with L22A, A111K counted along it
T2 sequence (Q15116 21-170 G164A): as the sequence (Q15116 21-170 K131A) above, with A111K, G144A counted along it
T4 sequence (Q15116 21-170 T36A): as the sequence (Q15116 21-170 K131A) above, with T16A, A111K counted along it
T16 sequence (Q15116 21-170 N49A): as the sequence (Q15116 21-170 K131A) above, with N29A, A111K counted along it
T12 sequence (Q15116 21-170 P72A): as the sequence (Q15116 21-170 K131A) above, with P52A, A111K counted along it
T6 sequence (Q15116 21-170 A149G): as the sequence (Q15116 21-170 K131A) above, with A111K, A129G counted along it
T11 sequence (Q15116 21-170 Q91A): as the sequence (Q15116 21-170 K131A) above, with Q71A, A111K counted along it
T14 sequence (Q15116 21-170 E150A): as the sequence (Q15116 21-170 K131A) above, with A111K, E130A counted along it
T28 sequence (Q15116 21-170 E146A): as the sequence (Q15116 21-170 K131A) above, with A111K, E126A counted along it
T26 sequence (Q15116 21-170 S73A): as the sequence (Q15116 21-170 K131A) above, with S53A, A111K counted along it
T1 sequence (Q15116 21-170 P152A): as the sequence (Q15116 21-170 K131A) above, with A111K, P132A counted along it
T13 sequence (Q15116 21-170 E136A): as the sequence (Q15116 21-170 K131A) above, with A111K, E116A counted along it

Binder	KD mutant/KD wild-type (human PD-1 ECD-Fc P152A) [ratio]	KD mutant/KD wild-type (human PD-1 ECD-Fc G164A) [ratio]	KD mutant/KD wild-type (human PD-1 ECD-Fc A163G) [ratio]	KD mutant/KD wild-type (human PD-1 ECD-Fc T36A) [ratio]	KD mutant/KD wild-type (human PD-1 ECD-Fc K135A) [ratio]	KD mutant/KD wild-type (human PD-1 ECD-Fc A149G) [ratio]	KD mutant/KD wild-type (human PD-1 ECD-Fc D48A) [ratio]	KD mutant/KD wild-type (human PD-1 ECD-Fc L42A) [ratio]	KD mutant/KD wild-type (human PD-1 ECD-Fc S157A) [ratio]	KD mutant/KD wild-type (human PD-1 ECD-Fc E61A) [ratio]	KD mutant/KD wild-type (human PD-1 ECD-Fc Q91A) [ratio]	KD mutant/KD wild-type (human PD-1 ECD-Fc P72A) [ratio]	KD mutant/KD wild-type (human PD-1 ECD-Fc E150A) [ratio]	KD mutant/KD wild-type (human PD-1 ECD-Fc S57A) [ratio]	KD mutant/KD wild-type (human PD-1 ECD-Fc N49A) [ratio]	KD mutant/KD wild-type (human PD-1 ECD-Fc N116A) [ratio]	KD mutant/KD wild-type (human PD-1 ECD-Fc P21A) [ratio]	KD mutant/KD wild-type (human PD-1 ECD-Fc T59A) [ratio]	KD mutant/KD wild-type (human PD-1 ECD-Fc A80G) [ratio]	KD mutant/KD wild-type (human PD-1 ECD-Fc D92A) [ratio]	further results
B1	1.4	1.1	1	1	4.2	0.8	1	1.3	0.9	1.2	0.8	1.1	1	1.2	1.1	1.4	2.1	0.9	1.2	1.2	KD mutant/KD wild-type (human PD-1 ECD-Fc E136A): 0.8 ratio; KD mutant/KD wild-type (human PD-1 ECD-Fc P130A): 105 ratio; KD mutant/KD wild-type (human PD-1 ECD-Fc P158A): 1.2 ratio; KD mutant/KD wild-type (human PD-1 ECD-Fc G124A): 0.5 ratio; KD mutant/KD wild-type (human PD-1 ECD-Fc D77A): 2.8 ratio; KD mutant/KD wild-type (human PD-1 ECD-Fc S73A): 0.9 ratio; KD mutant/KD wild-type (human PD-1 ECD-Fc S71A): 0.9 ratio; KD mutant/KD wild-type (human PD-1 ECD-Fc E146A): 1.2 ratio; KD mutant/KD wild-type (human PD-1 ECD-Fc A154G): 0.8 ratio; KD mutant/KD wild-type (human PD-1 ECD-Fc T76A): 1.4 ratio; KD mutant/KD wild-type (human PD-1 ECD-Fc Q88A): 1.4 ratio; KD mutant/KD wild-type (human PD-1 ECD-Fc N102A): 1.5 ratio; binding result (human PD-1 ECD-Fc K131A): no binding (tested: 1 nM to 50 nM)
B2	0.9	0.9	1.1	1	1.1	1	0.6	0.5	1	1.1	1	1.8	1	1	0.7	0.8	1	1	0.4	0.8	binding result (human PD-1 ECD-Fc E136A): no binding (tested: 1 nM to 50 nM); KD mutant/KD wild-type (human PD-1 ECD-Fc P130A): 0.5 ratio; KD mutant/KD wild-type (human PD-1 ECD-Fc P158A): 0.9 ratio; KD mutant/KD wild-type (human PD-1 ECD-Fc G124A): 4 ratio; KD mutant/KD wild-type (human PD-1 ECD-Fc D77A): 0.3 ratio; KD mutant/KD wild-type (human PD-1 ECD-Fc S73A): 0.5 ratio; KD mutant/KD wild-type (human PD-1 ECD-Fc S71A): 0.9 ratio; KD mutant/KD wild-type (human PD-1 ECD-Fc E146A): 1 ratio; KD mutant/KD wild-type (human PD-1 ECD-Fc A154G): 1 ratio; KD mutant/KD wild-type (human PD-1 ECD-Fc T76A): 0.3 ratio; KD mutant/KD wild-type (human PD-1 ECD-Fc Q88A): 1.4 ratio; KD mutant/KD wild-type (human PD-1 ECD-Fc N102A): 0.6 ratio; binding result (human PD-1 ECD-Fc K131A): no binding (tested: 1 nM to 50 nM)
B3	1	1	1.1	0.9	1.2	1	2.4	2.2	1	1	1	1	1	1.1	1	0.9	1.1	0.9	1	0.9	KD mutant/KD wild-type (human PD-1 ECD-Fc E136A): 1 ratio; KD mutant/KD wild-type (human PD-1 ECD-Fc P130A): 0.9 ratio; KD mutant/KD wild-type (human PD-1 ECD-Fc P158A): 1 ratio; KD mutant/KD wild-type (human PD-1 ECD-Fc G124A): 1 ratio; KD mutant/KD wild-type (human PD-1 ECD-Fc D77A): 1 ratio; KD mutant/KD wild-type (human PD-1 ECD-Fc S73A): 0.9 ratio; KD mutant/KD wild-type (human PD-1 ECD-Fc S71A): 0.9 ratio; KD mutant/KD wild-type (human PD-1 ECD-Fc E146A): 1 ratio; KD mutant/KD wild-type (human PD-1 ECD-Fc A154G): 1 ratio; KD mutant/KD wild-type (human PD-1 ECD-Fc T76A): 1.2 ratio; KD mutant/KD wild-type (human PD-1 ECD-Fc Q88A): 0.9 ratio; KD mutant/KD wild-type (human PD-1 ECD-Fc N102A): 0.7 ratio; KD mutant/KD wild-type (human PD-1 ECD-Fc K131A): 0.9 ratio
